Results taken from patent publication US20240026407A1, “MODIFICATION OF SAPONINS” (GLAXOSMITHKLINE BIOLOGICALS SA, priority 2020, published 2024).

Experiments:
Assay type in all cases: biochemical, Quillaja saponaria
[1] = Experiment 6-1: specificity of rhamnosidases towards other rhamnose residues (C3 saccharide rhamnose, C28 saccharide rhamnose); details: TBE 2%, pH 7.5, 30 degC, 18 h; LCMS/MS; negative controls 0.18, 0.17
[2] = Experiment 6-1: screening of rhamnosidases for derhamnosylation of saponins in treated bark extract (2%), QS-17 2310 to QS-18 2164 (PAR %); details: TBE 2%, pH 7.5, 30 degC, 18 h; TIC peak area ratio percent, LCMS/MS; negative controls 3.061, 2.429
[3] = Experiment 6-1: screening of rhamnosidases for derhamnosylation of saponins in treated bark extract (2%), QS-17 2296 to QS-18 2150 (PAR %); details: TBE 2%, pH 7.5, 30 degC, 18 h; TIC peak area ratio percent of rhamnosylated starting saponin to derhamnosylated product, LCMS/MS; negative controls 4.876, 5.225
[4] = Experiment 6-1: screening of rhamnosidases for derhamnosylation of saponins in treated bark extract (2%), desglucosyl-QS-17 2134 to QS-21 1988 (PAR %); details: TBE 2%, pH 7.5, 30 degC, 18 h; TIC peak area ratio percent, LCMS/MS; negative controls 2.719, 2.158

Molecule	ratio PP/QS-21 [1]	Peak57 (PAR %) [2] [%]	QS-17 (PAR %) [3] [%]	Peak75 (PAR %) [4] [%]
1028 (protein, listed as Formosa agariphila) MKYNKLLFSLLLLAVFCFSCKEEQKLQTSLDFDKVLLNAKSNPIAIESESPLFSWIIKAEGFGKSQSAYHILVASSLDKLDETHADVWNSNKVESSKSTFVKYEGKELKAATRYYWKVKVWDKSNQESNWSEPQYFQMGLLDESNWGEAKWITLTNDTRTSEYRFREYKTGRMEQPIQVDGFAASYFRNKINLNKEVDNAQVYICGLGYYEFFLNGEKVGDHVLDPAPSNYDKQAYYVNYDITEQLNSGENALGIILGNGFYGQNISWKNDPESDRDLAYGPPTVRVLLKLKYKDGTESEFFSDETWKESTGPIVFNNIYGGDTYDARFELGDWTSTNYDDSSWGFAKETAPEIKNISAQQIPAIKKLQDYEPQNVFKGSDGEWIVDFGQNIAGWVKLNVSEKEGQLIEVITTEALLTNGRDIFPGSTGGGANGMAQIYQYICKGDGQESWEPKFSYHGFRYAKIKGVSTKPDADMIKAVLVATDIQETGSFECSDDLFNKMHNISKWTIVDNVHGIPEDCPHREKCGWLGDAHAFCEYALYNYDMYDFYKKYMEDIRTQMLPTKGHNNPELKFQVPTMIAPGKRTSSYAKIDWGVATMYLPWYNYLYYGDDAIVNEYYPEMKDLTNFYLNFKGENGIMQDGMGDWCPPRWDRRTNPEAMECDPIISANAYFYDVLGIMETFAKMNNDGAFQSEMKAEKEALKDAFNKAFLVEIPNTDFKWYQSQTATVQALQFGMVPEEEIENVVNGLEYDIVEVKGGHHSTGIHGNRYIYTVLSKYGKADLAYRILTTPDFPSQTYIMNSGFTTWPERQFEWETMEGPTNSLNHPMHSGFSAYFFESLGGIKSSTKEAGYKQFIVNPEFPSQITQTKVSVPTPYGDIKNDWSFEEGKLSMTLEIPFNTEANLVLNQAELESLIINGKTFQNLQKNTKSVTLQGSNVILGSGKYKILYNKR	0.15	1.993	5.081	2.885
991 (protein, Spirosoma linguale) MKFARLNTLTVWLITSFITVSFTISEAISADLTPVNLRTEYKRNPVVDVDKPRLSWELTATGRGQIQTAYQILVASSAALLNAEKADLWQSAKVAGNATNQIEYSGKTLLSRTVCYWKVRSWDKNGQPGPWSAVATWEMGLLTKADWKADWIGNDLTALGKGKTYHLPPSPFFRKEIQLTAPVKKARLYVTSLGLYEYQINGKRIGNDYFTPGWTDYNKRVYYQTYDVTADVKPGKNALGAILADGWYAGYLGYALLVGNPVVKNFYGNVPLLKAQLEIEYTNGKTETIATDQSWKTSHGPILEADILNGETYNANLAFDNWSKTGFNDAGWKNSTIFPDKPDRQLEAYPGNPVRVFQELKAKTVTPKAGGHYLFDLGQNFAGMVRLRVKGNKGDTIRLRFGEVLFPNGDIMTENLRKARATDTYILKGDPQGETWTPKFTYHGFQYVDVAGFKSAPGLDAITGIVLTSATPETGSFETDNKLINKLYQNIVWTQRSNYVEVPTDCPQRDERLGWTGDAQAYVQSATFNNDISAFFTKWLVDLNDAQRPDNAYPIYAPAPNVRKTDTYSPGWSEAGIICPYTIYKTYGDTRVIQKFWPNMVAYLKFMEAKSQGTYVYKEGSFAEVSPKGGFGDWLSVGKKTPPDMLATLYFGYAASMMADMAKAIGKPDEATYYTTMFTKIKQAFRAHYTDETGRFKTNSAAYGNGEGYVDGEMGFEGHTQTAYANAIYMNMIAPDLTPKAGNWLVDLIKANDNKLSTGFLGVKPLLPSLSMTGHSNEAYKLLLSTEYPSWGFEVVNGANTIWERWNSYIKGKGFENNAGMNSFNHYAFGSVNEWLFGNAAGIKAAEAGYRTFIIRPELAPQGINFVNASYRSINGTIVSSWKKEGNRVRMKVVVPANTTATVFIPITKPDSVLESNKALTASQDIRVIGARDGYLQVTVGSGTYQFSAVN	0.17	3.443	5.084	2.453
